Drawing on publication PMC2363969 (British Journal of Cancer, 2001), this text covers IC50 for five molecules.

Assay [1] deals with HLA-DRB1*0401 (human). The assay can be described thus: radioligand binding; solid-state competitive-binding assay (as in Southwood et al, 1998): the peptide blocks the binding of a radio-labeled reference peptide to purified HLA-DR4 complexes; IC50 in nM. Conditions: both partners purified.
Assay [2] deals with HLA-DRB1*0404 (human). The description is as above. The settings on record: both partners purified.

The term IC50 denotes the concentration that inhibits the measured activity by half. A low value points to inhibition by little substance.

B1: gp100/pmel17 283-304 (peptide)
peptide: PGPVTAQVVLQAAIPLTSCGSS
notes: gp100/pmel17 melanoma-associated antigen, residues 283-304; also called gp100283-304; g283; source: synthetic peptide (FMOC chemistry, UPCI Peptide Synthesis Facility), >90% pure
In turn, B1 registered an IC50 in assay [1] of 2.89 µM.

B2: gp100/pmel17 540-561 (peptide)
peptide: LCQPVLPSPACQLVLHQILKGG
notes: gp100/pmel17 melanoma-associated antigen, residues 540-561; also called gp100540-561; g540; source: synthetic peptide (FMOC chemistry, UPCI Peptide Synthesis Facility), >90% pure
B2 had an IC50 in assay [2] of 614 nM.

B3: gp100/pmel17 506-522 (peptide)
peptide: EGDAFELTVSCQGGLPK
notes: gp100/pmel17 melanoma-associated antigen, residues 506-522; also called gp100506-522; g506; source: synthetic peptide (FMOC chemistry, UPCI Peptide Synthesis Facility), >90% pure
As for B3, the values for the IC50 in assay [1] and in assay [2] were 3.21 µM and 3550 nM, respectively.

B4: gp100/pmel17 167-189 (peptide)
peptide: VSGLSIGTGRAMLGTHTMEVTVY
notes: gp100/pmel17 melanoma-associated antigen, residues 167-189; also called gp100167-179; g167; source: synthetic peptide (FMOC chemistry, UPCI Peptide Synthesis Facility), >90% pure
B4 came in with an IC50 in assay [2] of 372 nM.

B5: gp100/pmel17 6-26 (peptide)
peptide: KRCLLHLAVIGALLAVGATKV
notes: gp100/pmel17 melanoma-associated antigen, residues 6-26; also called gp1006-26; g6; source: synthetic peptide (FMOC chemistry, UPCI Peptide Synthesis Facility), >90% pure
B5 displayed an IC50 in assay [2] of 335 nM.
